According to US20160311908A1 (MERRIMACK PHARMACEUTICALS, published 2016):

Target: murine EGFR (murine, UniProt Q01279 25-647, limits assumed)
Test: not described (statement in the xenograft methods)

B1: P3X (antibody, V domains shown)
VH: QVQLVQSGAEVKKPGASVKVSCKASGYAFTSYGINWVRQAPGQGLEWMGWISAYNGNTYYAQKLRGRVTMTTDTSTSTAYMELRSLRSDDTAVYYCARDLGGYGSGSVPFDPWGQGTLVTVSS
VL: EIVMTQSPATLSVSPGERATLSCRASQSVSSNLAWYQQKPGQAPRLLIYGASTRATGIPARFSGSGSGTEFTLTISSLQSEDFAVYYCQDYRTWPRRVFGGGTKVEIK
notes: Fully human monoclonal antibody; Alexa Fluor 488-labelled in flow cytometry; also called P3X monoclonal antibody; third monoclonal antibody
binding result: no binding
